Experimental findings from patent US20250282866A1 (VIGIL NEUROSCIENCE, published 2025) are described below.

Assay [1] concerns the target T1, human TREM2 (human, UniProt Q9NZC2 19-174, limits assumed).
T1 construct: also called triggering receptor expressed on myeloid cells 2
T1 sequence: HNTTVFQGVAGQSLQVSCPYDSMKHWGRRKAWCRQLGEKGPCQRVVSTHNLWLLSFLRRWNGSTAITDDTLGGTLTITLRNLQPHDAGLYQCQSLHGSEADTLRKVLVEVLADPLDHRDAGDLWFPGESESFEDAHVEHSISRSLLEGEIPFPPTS
Briefly: 2nd screen 2 nM.

The target in assay [2] is T1, human TREM2. Briefly: 1st screen (110 nM or 10 nM).
The target in assay [3] is T1, human TREM2. Briefly: 2nd screen 10 nM.
Assay [4] deals with T1, human TREM2. Briefly: 2nd screen 100 nM.

B1: V1 (antibody, V domains shown)
VH: EVQLVQSGAEVKKPGESLKISCKGSGYSFTSSWIAWVRQMPGKGLEWMGIIYPGDSDTRYSPSFQGQVTISADKSISTAYLQWSSLKASDTAMYFCARSRTFYYDSSDYFDYWGQGTLVTVSS
VL: DIQMTQSPSSVSASVGDRVTITCRASQGISSWLAWYQQKPGKAPKLLIYAASSLTNGVPSRFSGSGSGTDFTLTISSLQPEDFATYFCQQADSYPRTFGQGTKLEIK
Turning to B1, the “Binding Signal (fold over 6E7 Parental antibody)” value was determined as 1.29 fold in assay [1], 1.68 fold in assay [2] and 1.92 fold in assay [3].

B2: V3 (antibody, V domains shown)
VH: EVQLVQSGAEVKKPGESLKISCKGSGYSFASYWIAWVRQMPGKGLEWMGIIYPGDSDTRYSPSFQDQVTISADKSISTAYLQWSSLKASDTAMYFCARGRTFYYDSSDYFDYWGQGTLVTVSS
VL: DIQMTQSPSSVSASVGDRVTITCRASQGISSWLAWYQQKPGKAPKLLIYAASSRQNGVPSRFSGSGSGTDFTLTISSLQPEDFATYFCQQADRFPRTFGQGTKLEIK
B2: the “Binding Signal (fold over 6E7 Parental antibody)” value in assay [1] worked out at 1.95 fold; in assay [2] it was 1.97 fold; in assay [3] it was 2.24 fold.

B3: V93 (antibody, V domains shown)
VH: EVQLVQSGAEVKKPGESLKISCKGSGYSFTSYWIAWVRQMPGKGLEWMGIIYPGDSDTRYSPSFQGQVTISADKSISTAYLQWSSLKASDTAMYFCARQRTFYYDSSDYFDYWGQGTLVTVSS
VL: DIQMTQSPSSVSASVGDRVTITCRASQGISGWLAWYQQKPGKAPKLLIYAASSLQNGVPSRFSGSGSGTDFTLTISSLQPEDFATYFCQQADSFPRTFGQGTKLEIK
Regarding B3, the “Binding Signal (fold over 6E7 Parental antibody)” value was found to be 0.35 fold in assay [2] and 1.05 fold in assay [4].

B4: V4 (antibody, V domains shown)
VH: EVQLVQSGAEVKKPGESLKISCKGSGYSFGSYWIAWVRQMPGKGLEWMGIIYPGDSDTRVSPSFQGQVTISADKSISTAYLQWSSLKASDTAMYFCARSRTFYYDSSDYFDYWGQGTLVTVSS
VL: DIQMTQSPSSVSASVGDRVTITCRASQGISSWLAWYQQKPGKAPKLLIYAASRLQNGVPSRFSGSGSGTDFTLTISSLQPEDFATYFCQQADSYPRTFGQGTKLEIK
Consider B4, for which the “Binding Signal (fold over 6E7 Parental antibody)” value in assay [1] came out at 5.88 fold; in assay [2], 6 fold; in assay [3] it was 5.51 fold.

B5: V5 (antibody, V domains shown)
VH: EVQLVQSGAEVKKPGESLKISCKGSGYSFTSYWIAWVRQMPGKGLEWMGTIYPGDSDTRYSPSFQGQVTISADKSISTAYLQWSSLKASDTAMYFCARQRTFYYDSSDYFDYWGQGTLVTVSS
VL: DIQMTQSPSSVSASVGDRVTITCRASQGISSWLAWYQQKPGKAPKLLIYAASSLQNGVPSRFSGSGSGTDFTLTISSLQPEDFATYFCQQADSHPRTFGQGTKLEIK
With B5, the “Binding Signal (fold over 6E7 Parental antibody)” value amounted to 1.25 fold in assay [1], 2.73 fold in assay [2] and 2.84 fold in assay [3].

B6: V92 (antibody, V domains shown)
VH: EVQLVQSGAEVKKPGESLKISCKGSGYSFTSYWIAWVRQMPGKGLEWMGIIYPGDSDTRYSPSFQGQVTISADKSISTAYLQWSSLKASDTAMYFCARQRTFHYDSSDYFDYWGQGTLVTVSS
VL: DIQMTQSPSSVSASVGDRVTITCRASQGISSWLAWYQQKPGKAPKLLIYAASSLQNGVPSRFSGSGSGTDFTLTISSLQPEDFATYFCQQADSFPRTFGQGTKLEIK
With B6, the “Binding Signal (fold over 6E7 Parental antibody)” value amounted to 0.22 fold in assay [2] and 0.65 fold in assay [4].

B7: V82 (antibody, V domains shown)
VH: EVQLVQSGAEVKKPGESLKISCKGSGYSFTSYWIAWVRQMPGKGLEWMGIIYPGDSDTRYSPSFQGQVTISADKSISTAYLQWSSLKASDTAMYFCARQRTFYYDSSDYFDYWGQGTLVTVSS
VL: DIQMTQSPSSVSASVGDRVTITCRASQGISSWLAWYQQKPGKAPKLLIYAGSSLQNGVPSRFSGSGSGTDFTLTISSLQPEDFATYFCQQADSFPRTFGQGTKLEIK
Consider B7, for which the “Binding Signal (fold over 6E7 Parental antibody)” value amounted to 0.3 fold in assay [2] and 0.79 fold in assay [4].

B8: V13 (antibody, V domains shown)
VH: EVQLVQSGAEVKKPGESLKISCKGSGYSFGSYWIAWVRQMPGKGLEWMGIIYPGDSDTRYSASFQGQVTISADKSISTAYLQWSSLKASDTAMYFCARGRTFYYDSSDYFDYWGQGTLVTVSS
VL: DIQMTQSPSSVSASVGDRVTITCRASQGISSWLAWYQQKPGKAPKLLIYAASSLQGGVPSRFSGSGSGTDFTLTISSLQPEDFATYFCQQADSMPRTFGQGTKLEIK
Regarding B8, the “Binding Signal (fold over 6E7 Parental antibody)” value in assay [1] is 1.15 fold; in assay [2], 1.31 fold; in assay [3], 1.35 fold.

B9: V14 (antibody, V domains shown)
VH: EVQLVQSGAEVKKPGESLKISCKGSGYSFGSYWIAWVRQMPGKGLEWMGIIYPGDQDTRYSPSFQGQVTISADKSISTAYLQWSSLKASDTAMYFCARGRTFYYDSSDYFDYWGQGTLVTVSS
VL: DIQMTQSPSSVSASVGDRVTITCRASQGISSWLAWYQQKPGKAPKLLIYAASRLQNGVPSRFSGSGSGTDFTLTISSLQPEDFATYFCQQADSFPRTFGQGTKLEIK
As for B9, the “Binding Signal (fold over 6E7 Parental antibody)” value in assay [1] amounted to 2.57 fold; in assay [2], 4.71 fold; in assay [3], 4.64 fold.

B10: V79 (antibody, V domains shown)
VH: EVQLVQSGAEVKKPGESLKISCKGSGYSFTSYWIAWVRQMPGKGLEWMGIIYPGDSDTNYSPSFQGQVTISADKSISTAYLQWSSLKASDTAMYFCARQRTFYYDSSDYFDYWGQGTLVTVSS
VL: DIQMTQSPSSVSASVGDRVTITCRASQGISSWLAWYQQKPGKAPKLLIYAASSLQNGVPSRFSGSGSGTDFTLTISSLQPEDFATYFCQQADSFPRTFGQGTKLEIK
For the molecule B10, the “Binding Signal (fold over 6E7 Parental antibody)” value worked out at 0.7 fold in assay [2] and 0.52 fold in assay [4].

B11: V2 (antibody, V domains shown)
VH: EVQLVQSGAEVKKPGESLKISCKGSGSSFTSYWIAWVRQMPGKGLEWMGIIYPGDGDTRYSPSFQGQVTISADKSISTAYLQWSSLKASDTAMYFCARSRTFYYDSSDYFDYWGQGTLVTVSS
VL: DIQMTQSPSSVSASVGDRVTITCRASQGISSWLAWYQQKPGKAPKLLIYAASSRQNGVPSRFSGSGSGTDFTLTISSLQPEDFATYFCQQADRFPRTFGQGTKLEIK
Take B11: the figures for the “Binding Signal (fold over 6E7 Parental antibody)” value in assay [1], in assay [2] and in assay [3] were 2.23 fold, 2.55 fold and 2.9 fold, respectively.

B12: V91 (antibody, V domains shown)
VH: EVQLVQSGAEVKKPGESLKISCKGSGYSFTSYWIAWVRQMPGKGLEWMGIIYPDDSDTRYSPSFQGQVTISADKSISTAYLQWSSLKASDTAMYFCARQRTFYYDSSDYFDYWGQGTLVTVSS
VL: DIQMTQSPSSVSASVGDRVTITCRASQGISSWLAWYQQKPGKAPKLLIYAASSLQNGVPSRFSGSGSGTDFTLTISSLQPEDFATYFCQQADSFPRTFGQGTKLEIK
For the molecule B12, the figures for the “Binding Signal (fold over 6E7 Parental antibody)” value in assay [2] and in assay [4] were 0.25 fold and 0.61 fold, respectively.

B13: V80 (antibody, V domains shown)
VH: EVQLVQSGAEVKKPGESLKISCKGSGYSFTSYWIAWVRQMPGKGLEWMGIIYPGDSDTRYSPSFQGQVTISADKSISTAYLQWSSLKASDTAMYFCARQRNFYYDSSDYFDYWGQGTLVTVSS
VL: DIQMTQSPSSVSASVGDRVTITCRASQGISSWLAWYQQKPGKAPKLLIYAASSLQNGVPSRFSGSGSGTDFTLTISSLQPEDFATYFCQQADSFPRTFGQGTKLEIK
In the case of B13, the “Binding Signal (fold over 6E7 Parental antibody)” value in assay [2] was found to be 0.59 fold; in assay [4] it was 0.5 fold.

B14: V83 (antibody, V domains shown)
VH: EVQLVQSGAEVKKPGESLKISCKGSGYSFTSYWIAWVRQMPGKGLEWMGIIYPGDSDTRYSPSFQGQVTISADKSISTAYLQWSSLKASDTAMYFCARQRTFYYDSSDYFDYWGQGTLVTVSS
VL: DIQMTQSPSSVSASVGDRVTITCRASQGISSWLAWYQQKPGKAPKLLIYAASSLQNGVPSRFSGSGSGTDFTLTISSLQPEDFATYFCQQAVSFPRTFGQGTKLEIK
With B14, the “Binding Signal (fold over 6E7 Parental antibody)” value was determined as 0.2 fold in assay [2] and 0.29 fold in assay [4].

B15: V94 (antibody, V domains shown)
VH: EVQLVQSGAEVKKPGESLKISCKGSGYSFTSYWIAWVRQMPGKGLEWMGIIYPGDSDTRYSPSFQGQVTISADKSISTAYLQWSSLKASDTAMYFCARQRTFYYDSSDYFDYWGQGTLVTVSS
VL: DIQMTQSPSSVSASVGDRVTITCRASQGISSWLAWYQQKPGKAPKLLIYAAASLQNGVPSRFSGSGSGTDFTLTISSLQPEDFATYFCQQADSFPRTFGQGTKLEIK
On to B15, for which the “Binding Signal (fold over 6E7 Parental antibody)” value turned out to be 0.31 fold in assay [2] and 0.87 fold in assay [4].

B16: V90 (antibody, V domains shown)
VH: EVQLVQSGAEVKKPGESLKISCKGSGYSFTSEWIAWVRQMPGKGLEWMGIIYPGDSDTRYSPSFQGQVTISADKSISTAYLQWSSLKASDTAMYFCARQRTFYYDSSDYFDYWGQGTLVTVSS
VL: DIQMTQSPSSVSASVGDRVTITCRASQGISRWLAWYQQKPGKAPKLLIYAASSLQNGVPSRFSGSGSGTDFTLTISSLQPEDFATYFCQQADSFPRTFGQGTKLEIK
For B16, the “Binding Signal (fold over 6E7 Parental antibody)” value in assay [2] worked out at 0.33 fold; in assay [4], 0.36 fold.

B17: V81 (antibody, V domains shown)
VH: EVQLVQSGAEVKKPGESLKISCKGSGYSFTSYWIAWVRQMPGKGLEWMGIIYPGDSDTRYSPSFQGQVTISADKSISTAYLQWSSLKASDTAMYFCARQRTFYYDSSDYFDYWGQGTLVTVSS
VL: DIQMTQSPSSVSASVGDRVTITCRASQGISSLLAWYQQKPGKAPKLLIYAASSLQNGVPSRFSGSGSGTDFTLTISSLQPEDFATYFCQQADSFPRTFGQGTKLEIK
Regarding B17, the “Binding Signal (fold over 6E7 Parental antibody)” value stood at 0.17 fold in assay [2] and 0.23 fold in assay [4].
